Results taken from paper PMC12075841.

How the values were obtained:
[1] = NONO immunostaining, paraspeckle count per nucleus; details: glycan lost; control: NONO WT in NONO-KO HCT116
[2] = NONO immunostaining, speckle count, HCT116; details: glycan gained; control: 5.5 mM glucose, no OGT

Row | Protein | localisation_or_trafficking [1] | localisation_or_trafficking [2]
1 | NONO (Non-POU domain-containing octamer-binding protein): T440A (protein) parent chain: MQSNKTFNLEKQNHTPRKHHQHHHQQQHHQQQQQQPPPPPIPANGQQASSQNEGLTIDLKNFRKPGEKTFTQRSRLFVGNLPPDITEEEMRKLFEKYGKAGEVFIHKDKGFGFIRLETRTLAEIAKVELDNMPLRGKQLRVRFACHSASLTVRNLPQYVSNELLEEAFSVFGQVERAVVIVDDRGRPSGKGIVEFSGKPAARKALDRCSEGSFLLTTFPRPVTVEPMDQLDDEEGLPEKLVIKNQQFHKEREQPPRFAQPGSFEYEYAMRWKALIEMEKQQQDQVDRNIKEAREKLEMEMEAARHEHQVMLMRQDLMRRQEELRRMEELHNQEVQKRKQLELRQEEERRRREEEMRRQQEEMMRRQQEGFKGTFPDAREQEIRMGQMAMGGAMGINNRGAMPPAPVPAGTPAPPGPATMMPDGTLGLTPPTTERFGQAATMEGIGAIGGTPPAFNRAAPGAEFAPNKRRRY | decreases | –
2 | NONO (Non-POU domain-containing octamer-binding protein): myc-tagged OGT overexpression (protein) parent chain: MQSNKTFNLEKQNHTPRKHHQHHHQQQHHQQQQQQPPPPPIPANGQQASSQNEGLTIDLKNFRKPGEKTFTQRSRLFVGNLPPDITEEEMRKLFEKYGKAGEVFIHKDKGFGFIRLETRTLAEIAKVELDNMPLRGKQLRVRFACHSASLTVRNLPQYVSNELLEEAFSVFGQVERAVVIVDDRGRPSGKGIVEFSGKPAARKALDRCSEGSFLLTTFPRPVTVEPMDQLDDEEGLPEKLVIKNQQFHKEREQPPRFAQPGSFEYEYAMRWKALIEMEKQQQDQVDRNIKEAREKLEMEMEAARHEHQVMLMRQDLMRRQEELRRMEELHNQEVQKRKQLELRQEEERRRREEEMRRQQEEMMRRQQEGFKGTFPDAREQEIRMGQMAMGGAMGINNRGAMPPAPVPAGTPAPPGPATMMPDGTLGLTPPTTERFGQAATMEGIGAIGGTPPAFNRAAPGAEFAPNKRRRY | – | increases
